Laboratory results: patent publication US20140096274A1 (published 2014)

T1: human RANK-Fc (human, UniProt Q9Y6Q6 30-212)
T1 construct: also called hRANK-Fc; hRANK-FC; not shown: Fc part of the bought fusion; not described
T1 sequence (looked up): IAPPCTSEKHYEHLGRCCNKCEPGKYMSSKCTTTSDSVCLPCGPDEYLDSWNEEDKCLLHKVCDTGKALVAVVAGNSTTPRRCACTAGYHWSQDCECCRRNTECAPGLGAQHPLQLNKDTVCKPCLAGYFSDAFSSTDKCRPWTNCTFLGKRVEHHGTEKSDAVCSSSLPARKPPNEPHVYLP

T2: murine RANKL heterodimeric variant mD1 (mouse Dimer 1) (mouse, UniProt O35235 160-316; O35235 160-316)
T2 construct: range 160-316; Heterodimer of monomer A (His-tagged) and monomer B, co-expressed in E. coli; also called RANKL dimer 1; RANK-L Dimer 1; not shown: hexahistidine-tag fused to monomer A
T2 sequence (looked up) 1: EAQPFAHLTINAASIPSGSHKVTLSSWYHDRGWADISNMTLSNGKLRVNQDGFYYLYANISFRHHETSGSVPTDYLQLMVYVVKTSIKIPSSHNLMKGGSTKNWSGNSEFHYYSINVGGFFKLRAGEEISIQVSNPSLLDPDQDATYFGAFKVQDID
T2 sequence (looked up) 2: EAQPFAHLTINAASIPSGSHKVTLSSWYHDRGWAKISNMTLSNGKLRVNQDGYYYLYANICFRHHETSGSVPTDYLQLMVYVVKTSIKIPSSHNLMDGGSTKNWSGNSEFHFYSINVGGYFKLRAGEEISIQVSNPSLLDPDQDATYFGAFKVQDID

T3: murine RANKL heterodimeric variant mD2 (mouse Dimer 2) (mouse, UniProt O35235 160-316; O35235 160-316)
T3 construct: range 160-316; Heterodimer of monomer A (His-tagged) and monomer B, co-expressed in E. coli; also called RANKL dimer 2; dRANKL D2; not shown: hexahistidine-tag fused to monomer A
T3 sequence (looked up) 1: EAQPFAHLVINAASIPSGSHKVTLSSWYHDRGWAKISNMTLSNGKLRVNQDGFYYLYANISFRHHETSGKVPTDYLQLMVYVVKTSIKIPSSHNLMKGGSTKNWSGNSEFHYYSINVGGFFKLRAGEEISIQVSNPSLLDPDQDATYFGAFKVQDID
T3 sequence (looked up) 2: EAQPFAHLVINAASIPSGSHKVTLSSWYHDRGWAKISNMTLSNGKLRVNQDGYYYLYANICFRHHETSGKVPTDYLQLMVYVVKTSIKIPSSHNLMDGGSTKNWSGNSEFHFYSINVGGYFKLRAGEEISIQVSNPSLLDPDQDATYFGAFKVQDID

B1: murine RANK-Fc (Fc fusion, mouse, UniProt O35305 31-214, looked up)
chain: VTPPCTQERHYEHLGRCCSRCEPGKYLSSKCTPTSDSVCLPCGPDEYLDTWNEEDKCLLHKVCDAGKALVAVDPGNHTAPRRCACTAGYHWNSDCECCRRNTECAPGFGAQHPLQLNKDTVCTPCLLGFFSDVFSSTDKCKPWTNCTLLGKLEAHQGTTESDVVCSSSMTLRRPPKEAQAYLPS
notes: also called mRANK-Fc; mRANK-FC; not shown: Fc part of the bought fusion; not described

Key:
human RANK-Fc = molecular target: T1, human RANK-Fc; assay: SPR (Biacore T100) single cycle kinetics, hRANK-Fc captured on protein A at 200 RU, 1:1 fit
Procedure: (§1) FIG. 35. Binding of dimeric human RANKL variants and human RANKL WT towards murine RANK at 37° C. (left) or human RANK (right) receptor. Receptors were captured at a level of 200 RU using a Protein A (Sigma) modified surface of a CM5 chip (Biacore GE Lifesciences). Receptor binding curves of purified human hD1.3 and hD2.3 variants and human RANKL WT (E. coli produced, R&D systems) were recorded in real time using the single cycle kinetics method (Biacore) using a Biacore T100 (Biacore, GE Lifescience). Ligands were injected in 5 consecutive injection from 1 nM to 100 nM. After subtracting the signal from the reference channel and buffer injections the resulting binding curves were fitted to a 1:1 interaction model using the BiaEvaluation software (Biacore GE Lifescience). Flow rate was 50 ul/min and protein A surface was regenerated using 10 mM Glycine pH 2 solution, murine RANK-Fc and human RANK-Fc were obtained from R&D systems. Running buffer was HBS-EP+ (Biacore GE Lifescience).

murine RANK-Fc = molecular target: B1; assay: SPR (Biacore T100) single cycle kinetics, mRANK-Fc captured on protein A at 200 RU, 1:1 fit
Procedure: as §1

[1] = molecular target: T2, murine RANKL heterodimeric variant mD1 …; assay: SPR single cycle kinetics, mRANK-Fc captured at 20-40 RU, 1:1 fit
Procedure: (§2) Considering the high similarity between human RANKL and murine RANKL (>88%) the murine dimers were also tested for hRANK binding. Binding to hRANK-Fc and mRANK-Fc (both from R&D Systems) was recorded for five consecutive concentrations of murine flag RANKL WT, D1 (mD1) or D2 (mD2) (˜0.3-15 nM) using SPR with a single cycle kinetics based approach. The capture level of mRANK-Fc and hRANK-Fc was low (20-40 RU) in order to ensure 1:1 binding. Both WT and the D1 and D2 dimeric variants bound with high affinity towards the mRANK receptor and to the human RANK receptor (FIG. 16: Table 8).

[2] = molecular target: T3, murine RANKL heterodimeric variant mD2 …; assay: as above
Procedure: as §2

[3] = molecular target: T2, murine RANKL heterodimeric variant mD1 …; assay: SPR, mRANK-Fc captured at low density on C1 chip, 1:1 Langmuir fit, mean of three experiments
Procedure: (§3) SPR measurements were performed using ˜1500-2000 RU of captured mRANK-Fc on the surface of a CM5 sensor chip (FIGS. 15B and C). This is a density that results in a mean ratio of RANKL:RANK of approx 1:3 (52). […] (Table 5, below) In contrast, the ratio of binding of RANKL variants mD1 and mD2 to mRANK-Fc seems hardly to be affected by receptor density (Table 5). The values obtained after injecting 500 nM of the dimeric variants correlate to binding of 1.5 monomeric subunits by mD1 and 1.6 monomeric subunits by mD2.
(§4) Kinetic binding parameters were also measured for mD1 and mD2 binding to mRANK-FC in real time using SPR using murine RANKL-WT as a control (FIG. 15; table 8). RANKL dimer binding curves to mRANK-Fc captured at low density on the surface of a C1 sensorchip were recorded using concentrations ranging from 100 pM to 562 nM. At very low receptor density, RANKL proteins bind only one receptor molecule, allowing the data to be fitted to a Langmuir 1:1 interaction model (29). RANKL WT needed a very low density (<20 resonance units (RU)) to come close to a 1:1 ratio (FIG. 3A). […] Maximum binding of 5.5 RU is reached, which is slightly lower than the expected Rₘₐₓ value of 6.8 RU for a 1:1 ratio, but definitely larger than 3.4 RU, the Rₘₐₓ value expected for a binding ratio of 2 molecules of RANK per flag-mRANKL WT trimer. Similar to mRANKL WT, binding of RANKL mD1 or mD2 to mRANK-Fc results in slightly lower Rₘₐₓ values than expected for a 1:1 binding ratio: 24 RU D1 compared to 26 RU, and 20 RU D2 compared to 23 RU (FIG. 15A). These binding ratio's could be reached with mD1 and mD2 at densities of mRANK-Fc of <50 RU. The approximate 1:1 binding of RANKL proteins to mRANK-Fc allows fitting the data to the 1:1 Langmuir binding model.

[4] = molecular target: T3, murine RANKL heterodimeric variant mD2 …; assay: as above
Procedure: as §3, §4

Row | Binder | Kd (human RANK-Fc) [nM] | koff (human RANK-Fc) [s⁻¹] | kon (human RANK-Fc) [M⁻¹ s⁻¹] | Kd (murine RANK-Fc) [nM] | koff (murine RANK-Fc) [s⁻¹] | kon (murine RANK-Fc) [M⁻¹ s⁻¹] | Kd [1] [nM] | koff [1] [s⁻¹] | kon [1] [M⁻¹ s⁻¹] | Kd [2] [nM] | koff [2] [s⁻¹] | kon [2] [M⁻¹ s⁻¹] | Ka [3] [M⁻¹] | Kd [3] [nM] | koff [3] [s⁻¹] | kon [3] [M⁻¹ s⁻¹] | Ka [4] [M⁻¹] | Kd [4] [nM] | koff [4] [s⁻¹] | kon [4] [M⁻¹ s⁻¹]
1 | trimeric human RANKL WT (E. coli produced, R&D Systems) (ligand, UniProt O14788 140-317, looked up, Bought protein; also called hWT) IRAEKAMVDGSWLDLAKRSKLEAQPFAHLTINATDIPSGSHKVSLSSWYHDRGWAKISNMTFSNGKLIVNQDGFYYLYANICFRHHETSGDLATEYLQLMVYVTKTSIKIPSSHTLMKGGSTKYWSGNSEFHFYSINVGGFFKLRSGEEISIEVSNPSLLDPDQDATYFGAFKVRDID | 0.267 | 0.00023 | 861000 | 0.136 | 0.000142 | 1.04e+06 | – | – | – | – | – | – | – | – | – | – | – | – | – | –
2 | human RANKL heterodimeric variant hD1-3 (ligand, Heterodimer expressed in E. coli BLR (DE3); copies: 1 + 1) chain 1: MGSSHHHHHHSQDPEAQPFAHLTINATDIPSGSHKVSLSSWYHDRGWADISNMTFSNGKLIVNQDGFYYLYANISFRHHETSGDLATEYLQLMVYVTKTSEKIPSSHTLMKGGSTKYWSGNSEFHYYSINVGGFFKLRSGEEISIEVSNPSLLDPDQDATYFGAFKVRDID chain 2: MEAQPFAHLTINATDIPSGSHKVSLSSWYHDRGWAKISNMTFSNGKLIVNQDGYYYLYANICFRHHETSGDLATEYLQLMVYVTKTSEKIPSSHTLMDGGSTKYWSGNSEFHFYSINVGGYFKLRSGEEISIEVSNPSLLDPDQDATYFGAFKVRDID | 0.345 | 0.000275 | 798000 | 0.211 | 0.00019 | 899000 | – | – | – | – | – | – | – | – | – | – | – | – | – | –
3 | human RANKL heterodimeric variant hD2-3 (ligand, Heterodimer expressed in E. coli BLR (DE3); also called hRANKL D2.3; copies: 1 + 1) chain 1: MGSSHHHHHHSQDPEAQPFAHLVINATDIPSGSHKVSLSSWYHDRGWAKISNMTFSNGKLIVNQDGFYYLYANISFRHHETSGKLATEYLQLMVYVTKTSEKIPSSHTLMKGGSTKYWSGNSEFHYYSINVGGFFKLRSGEEISIEVSNPSLLDPDQDATYFGAFKVRDID chain 2: MEAQPFAHLVINATDIPSGSHKVSLSSWYHDRGWAKISNMTFSNGKLIVNQDGYYYLYANICFRHHETSGKLATEYLQLMVYVTKTSEKIPSSHTLMDGGSTKYWSGNSEFHFYSINVGGYFKLRSGEEISIEVSNPSLLDPDQDATYFGAFKVRDID | 0.0766 | 8.87e-05 | 1.16e+06 | 0.0504 | 8.32e-05 | 1.65e+06 | – | – | – | – | – | – | – | – | – | – | – | – | – | –
4 | B1 | – | – | – | – | – | – | 0.0439 | 0.000247 | 5.93e+06 | 0.00855 | 5.76e-05 | 6.73e+06 | 2.7e+10 | 0.146 | 0.00015 | 5.8e+06 | 2.1e+11 | 0.01 | 4.3e-05 | 4.9e+06
